Molecular target: FLAG GG 9-mer (SEQ ID NO:20)

## Trypsin (type XI DPCC treated) (enzyme)
  completeness of proteolytic cleavage (relative mobility on SDS gels): 100%

From patent US5670616
